Test results taken from patent publication US20100227824A1 (SYMTHERA CANADA, published 2010).
Ends that are not written are not given here. * marks the point of attachment. Biotin = O=C1N[C@H]2[C@H](CS[C@H]2CCCCC(=O)*)N1

Legend:
MCP-1 (CCL2) [1] = biological target: T1, MCP-1 (CCL2) (UniProt P13500 24-99); experiment: micro-array, phage-presented peptide on printed CK
T1 construct: Bought chemokine
Experimental: (§1) (1) Printing: Chemokine (CK) solution (in water) was serially diluted with Print Reagent (GenTel BioSurfaces USA) to final concentrations of 50 μg and 25 μg/ml. BSA/BSA-Biotin control solutions (in water) were diluted with Print Reagent to 100 μg/ml. Amplified stock of M13 phage control (M13KEgIII Cloning Vector, New England Biolabs, Cat.No.E8101S) was stored in Tris Buffered Saline (TBS; pH7.5, 4° C.) and diluted with Print Reagent to the working titre (10^8 pfu/μl). An automated spotting robot (16 pin print tool, 0.4mm head; BioRobotics, UK) was used to print the CK/BSA control/M13 control, 5 repeats per sample (CK 25 μg/ml and 50 μg/ml; BSA 100 μg/ml; M13 20 μl), on PATH Protein Microarray Slides (GenTel, Prod.No.2-1005/-1025) at […], and 50-70% relative humidity. Printed micro-array slides were stored at Room Temperature (RT) or 4° C. for at least 24 h before use.
(§2) (2) Blocking: Block Buffer (500 μl/partition; PATHblock, GenTel, Prod.No.2-1014) was applied to the slide for 1 hour at room temp (RT). After removal of Block Buffer, the slide was air dried for 25 minutes;
(§3) (11) Analysis: Quantitative analysis of micro-array was performed by the SpotReader program of Niles Scientific (USA) and presented as Relative Fluorescence (RF) as a function of CK concentration. Micro-array readout (Cy3 fluorescence) was quantified to determine the relative binding affinities of a CBP for the CKs and by inference, the specificity of the CBP for binding to a CK.

Lymphotactin (XCL-1) [2] = biological target: T2, Lymphotactin (XCL-1) (UniProt P47992 23-114, limits assumed); experiment: micro-array, phage-presented peptide on printed CK
T2 construct: Bought chemokine
T2 sequence (looked up): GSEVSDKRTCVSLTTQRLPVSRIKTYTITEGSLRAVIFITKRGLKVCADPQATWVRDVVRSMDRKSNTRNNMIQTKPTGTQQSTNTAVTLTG
Experimental: as §1, §2, §3

Eotaxin 2 (CCL24) [3] = biological target: T3, Eotaxin 2 (CCL24) (UniProt O00175 27-104, limits assumed); experiment: micro-array, phage-presented peptide on printed CK
T3 construct: Bought chemokine
T3 sequence (looked up): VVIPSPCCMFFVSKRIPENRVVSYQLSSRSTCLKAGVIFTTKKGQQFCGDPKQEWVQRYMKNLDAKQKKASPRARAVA
Experimental: as §1, §2, §3

Exodus-2 (CCL21) = biological target: T4, Exodus-2 (CCL21) (UniProt O00585 24-134); experiment: micro-array, phage-presented peptide on printed CK
T4 construct: Bought chemokine
T4 sequence (looked up): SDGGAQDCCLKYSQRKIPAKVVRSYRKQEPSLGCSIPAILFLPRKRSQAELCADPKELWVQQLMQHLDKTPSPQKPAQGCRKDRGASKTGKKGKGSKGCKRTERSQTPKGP
Experimental: as §1, §2, §3

SDF-1α (CXCL12) [4] = biological target: T5, SDF-1α (CXCL12) (UniProt P48061-2 22-89); experiment: micro-array, phage-presented peptide on printed CK
T5 construct: Alpha isoform of CXCL12; also called SDFα
T5 sequence (P48061 22-89 limits assumed): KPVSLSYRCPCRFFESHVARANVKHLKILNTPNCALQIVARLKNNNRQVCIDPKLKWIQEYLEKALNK
Experimental: as §1, §2, §3

Mig (CXCL9) = biological target: T6, Mig (CXCL9) (UniProt Q07325 23-125); experiment: micro-array, phage-presented peptide on printed CK
T6 construct: Bought chemokine
T6 sequence (looked up): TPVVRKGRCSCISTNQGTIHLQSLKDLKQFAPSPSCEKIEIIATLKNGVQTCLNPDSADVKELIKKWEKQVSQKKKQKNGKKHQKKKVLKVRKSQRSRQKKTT
Experimental: as §1, §2, §3

TECK (CCL25) [5] = biological target: T7, TECK (CCL25) (UniProt O15444 24-150); experiment: micro-array, phage-presented peptide on printed CK
T7 construct: Bought chemokine
T7 sequence (looked up): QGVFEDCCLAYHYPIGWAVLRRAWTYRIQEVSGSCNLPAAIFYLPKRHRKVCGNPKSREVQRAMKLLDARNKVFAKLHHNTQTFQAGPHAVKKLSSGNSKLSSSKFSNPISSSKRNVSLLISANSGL
Experimental: as §1, §2, §3

SDF-1β (CXCL12) [6] = biological target: T8, SDF-1β (CXCL12) (UniProt P48061 22-93); experiment: micro-array, phage-presented peptide on printed CK
T8 construct: Beta isoform of CXCL12; also called SDFβ
T8 sequence (P48061 22-93 limits assumed): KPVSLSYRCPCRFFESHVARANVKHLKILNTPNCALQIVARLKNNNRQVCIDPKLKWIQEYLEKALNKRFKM
Experimental: as §1, §2, §3

MIP-3α (CCL20) = biological target: T9, MIP-3α (CCL20) (UniProt P78556 27-96); experiment: micro-array, phage-presented peptide on printed CK
T9 construct: Bought chemokine
T9 sequence (P78556 27-96 limits assumed): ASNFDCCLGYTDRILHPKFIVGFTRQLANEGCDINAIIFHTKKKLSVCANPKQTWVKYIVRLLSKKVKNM
Experimental: as §1, §2, §3

Eotaxin (CCL11) [7] = biological target: T10, Eotaxin (CCL11) (UniProt P51671 24-97); experiment: micro-array, phage-presented peptide on printed CK
T10 construct: Bought chemokine
T10 sequence (P51671 24-97 limits assumed): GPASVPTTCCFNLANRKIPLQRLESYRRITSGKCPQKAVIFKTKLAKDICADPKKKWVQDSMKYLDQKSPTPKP
Experimental: as §1, §2, §3

MDC(69aa) (CCL22) = biological target: T11, MDC(69aa) (CCL22) (UniProt O00626 25-93); experiment: micro-array, phage-presented peptide on printed CK
T11 construct: Bought chemokine
T11 sequence (looked up): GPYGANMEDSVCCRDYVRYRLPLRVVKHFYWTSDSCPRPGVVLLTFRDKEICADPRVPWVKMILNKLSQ
Experimental: as §1, §2, §3

MCP-4 (CCL13) = biological target: T12, MCP-4 (CCL13) (UniProt Q99616 24-98); experiment: micro-array, phage-presented peptide on printed CK
T12 construct: Bought chemokine
T12 sequence (Q99616 24-98 limits assumed): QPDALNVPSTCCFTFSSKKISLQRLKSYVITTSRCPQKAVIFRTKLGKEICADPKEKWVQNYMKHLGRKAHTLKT
Experimental: as §1, §2, §3

BCA-1 (CXCL13) [8] = biological target: T13, BCA-1 (CXCL13) (UniProt O43927 23-109); experiment: micro-array, phage-presented peptide on printed CK
T13 construct: Bought chemokine
T13 sequence (looked up): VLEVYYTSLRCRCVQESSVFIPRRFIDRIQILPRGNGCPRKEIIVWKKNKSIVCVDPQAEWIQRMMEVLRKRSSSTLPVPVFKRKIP
Experimental: as §1, §2, §3

I-309 (CCL1) [9] = biological target: T14, I-309 (CCL1) (UniProt P22362 23-96, limits assumed); experiment: micro-array, phage-presented peptide on printed CK
T14 construct: Bought chemokine
T14 sequence (looked up): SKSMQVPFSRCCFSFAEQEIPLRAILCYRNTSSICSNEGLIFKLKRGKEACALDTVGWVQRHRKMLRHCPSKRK
Experimental: as §1, §2, §3

IP-10 (CXCL10) = biological target: T15, IP-10 (CXCL10) (UniProt P02778 22-98); experiment: micro-array, phage-presented peptide on printed CK
T15 construct: Bought chemokine
T15 sequence (looked up): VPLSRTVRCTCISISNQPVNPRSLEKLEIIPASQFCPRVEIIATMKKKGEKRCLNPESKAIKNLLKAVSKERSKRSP
Experimental: as §1, §2, §3

CTAC (CCL27) = biological target: T16, CTAC (CCL27) (UniProt Q9Y4X3 25-112); experiment: micro-array, phage-presented peptide on printed CK
T16 construct: Bought chemokine
T16 sequence (looked up): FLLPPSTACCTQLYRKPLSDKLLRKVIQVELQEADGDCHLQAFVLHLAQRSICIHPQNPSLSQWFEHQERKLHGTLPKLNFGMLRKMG
Experimental: as §1, §2, §3

Eotaxin 3 (CCL26) [10] = biological target: T17, Eotaxin 3 (CCL26) (UniProt Q9Y258 24-94); experiment: micro-array, phage-presented peptide on printed CK
T17 construct: Bought chemokine
T17 sequence (looked up): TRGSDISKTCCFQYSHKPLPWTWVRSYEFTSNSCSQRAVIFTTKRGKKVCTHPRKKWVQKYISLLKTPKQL
Experimental: as §1, §2, §3

I-TAC (CXCL11) [11] = biological target: T18, I-TAC (CXCL11) (UniProt O14625 22-94); experiment: micro-array, phage-presented peptide on printed CK
T18 construct: Bought chemokine; also called I-TACK
T18 sequence (looked up): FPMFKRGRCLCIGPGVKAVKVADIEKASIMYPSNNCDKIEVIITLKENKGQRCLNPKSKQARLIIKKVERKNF
Experimental: as §1, §2, §3

MCP-2 (CCL8) = biological target: T19, MCP-2 (CCL8) (UniProt P80075 24-99); experiment: micro-array, phage-presented peptide on printed CK
T19 construct: Bought chemokine
T19 sequence (looked up): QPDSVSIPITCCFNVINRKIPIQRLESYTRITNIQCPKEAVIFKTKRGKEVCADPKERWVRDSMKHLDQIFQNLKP
Experimental: as §1, §2, §3

MCP-1 (CCL2) [12] = biological target: T1, MCP-1 (CCL2); experiment: micro-array, biotinylated peptide on printed CK
Lymphotactin (XCL-1) [13] = biological target: T2, Lymphotactin (XCL-1); experiment: micro-array, biotinylated peptide on printed CK
Eotaxin 2 (CCL24) [14] = biological target: T3, Eotaxin 2 (CCL24); experiment: micro-array, biotinylated peptide on printed CK
GRO-β (CXCL2) = biological target: T20, GRO-β (CXCL2) (UniProt P19875 35-107); experiment: micro-array, biotinylated peptide on printed CK
T20 construct: Bought chemokine
T20 sequence (looked up): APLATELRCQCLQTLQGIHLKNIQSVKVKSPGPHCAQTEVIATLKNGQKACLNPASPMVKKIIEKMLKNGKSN

SDF-1α (CXCL12) [15] = biological target: T5, SDF-1α (CXCL12); experiment: micro-array, biotinylated peptide on printed CK
TECK (CCL25) [16] = biological target: T7, TECK (CCL25); experiment: micro-array, biotinylated peptide on printed CK
SDF-1β (CXCL12) [17] = biological target: T8, SDF-1β (CXCL12); experiment: micro-array, biotinylated peptide on printed CK
Eotaxin (CCL11) [18] = biological target: T10, Eotaxin (CCL11); experiment: micro-array, biotinylated peptide on printed CK
BCA-1 (CXCL13) [19] = biological target: T13, BCA-1 (CXCL13); experiment: micro-array, biotinylated peptide on printed CK
I-309 (CCL1) [20] = biological target: T14, I-309 (CCL1); experiment: micro-array, biotinylated peptide on printed CK
Eotaxin 3 (CCL26) [21] = biological target: T17, Eotaxin 3 (CCL26); experiment: micro-array, biotinylated peptide on printed CK
I-TAC (CXCL11) [22] = biological target: T18, I-TAC (CXCL11); experiment: micro-array, biotinylated peptide on printed CK

T1 sequence (P13500 24-99 limits assumed): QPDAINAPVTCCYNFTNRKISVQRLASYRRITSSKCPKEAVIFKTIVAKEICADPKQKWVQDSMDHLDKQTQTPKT

B1: Phage-Presented Peptide 8.8 (Ph-p8.8) (peptide)
peptide: WVFGAAMCK
MCP-1 (CCL2) [1]
  Relative Fluorescence Units (RFU): > 15000 RFU
Lymphotactin (XCL-1) [2]
  binding result: binds
Eotaxin 2 (CCL24) [3]
  binding result: binds
Exodus-2 (CCL21)
  binding result: binds
SDF-1α (CXCL12) [4]
  binding result: binds
Mig (CXCL9)
  binding result: binds
TECK (CCL25) [5]
  binding result: binds
SDF-1β (CXCL12) [6]
  binding result: binds
MIP-3α (CCL20)
  binding result: binds
Eotaxin (CCL11) [7]
  binding result: binds
MDC(69aa) (CCL22)
  binding result: binds
MCP-4 (CCL13)
  Relative Fluorescence Units (RFU): > 15000 RFU
BCA-1 (CXCL13) [8]
  binding result: binds
I-309 (CCL1) [9]
  binding result: binds
IP-10 (CXCL10)
  binding result: binds
CTAC (CCL27)
  binding result: binds
Eotaxin 3 (CCL26) [10]
  binding result: binds
I-TAC (CXCL11) [11]
  binding result: binds
MCP-2 (CCL8)
  Relative Fluorescence Units (RFU): > 15000 RFU

B2: Chemokine Binding Peptide 10 (CBP10) (peptide)
peptide: Biotin-FFGLNNC
MCP-1 (CCL2) [12]
  Relative Fluorescence Units (RFU): > 600 RFU
Lymphotactin (XCL-1) [13]
  binding result: binds
Eotaxin 2 (CCL24) [14]
  binding result: binds
GRO-β (CXCL2)
  binding result: binds
SDF-1α (CXCL12) [15]
  binding result: binds
TECK (CCL25) [16]
  binding result: binds
SDF-1β (CXCL12) [17]
  binding result: binds
Eotaxin (CCL11) [18]
  binding result: binds
BCA-1 (CXCL13) [19]
  binding result: binds
I-309 (CCL1) [20]
  binding result: binds
Eotaxin 3 (CCL26) [21]
  binding result: binds
I-TAC (CXCL11) [22]
  binding result: binds
